First the molecules themselves.
B1: Microsomal triglyceride transfer protein large subunit (Homo sapiens), P55157 (parent)
chain: MILLAVLFLCFISSYSASVKGHTTGLSLNNDRLYKLTYSTEVLLDRGKGKLQDSVGYRISSNVDVALLWRNPDGDDDQLIQITMKDVNVENVNQQRGEKSIFKGKSPSKIMGKENLEALQRPTLLHLIHGKVKEFYSYQNEAVAIENIKRGLASLFQTQLSSGTTNEVDISGNCKVTYQAHQDKVIKIKALDSCKIARSGFTTPNQVLGVSSKATSVTTYKIEDSFVIAVLAEETHNFGLNFLQTIKGKIVSKQKLELKTTEAGPRLMSGKQAAAIIKAVDSKYTAIPIVGQVFQSHCKGCPSLSELWRSTRKYLQPDNLSKAEAVRNFLAFIQHLRTAKKEEILQILKMENKEVLPQLVDAVTSAQTSDSLEAILDFLDFKSDSSIILQERFLYACGFASHPNEELLRALISKFKGSIGSSDIRETVMIITGTLVRKLCQNEGCKLKAVVEAKKLILGGLEKAEKKEDTRMYLLALKNALLPEGIPSLLKYAEAGEGPISHLATTALQRYDLPFITDEVKKTLNRIYHQNRKVHEKTVRTAAAAIILNNNPSYMDVKNILLSIGELPQEMNKYMLAIVQDILRFEMPASKIVRRVLKEMVAHNYDRFSRSGSSSAYTGYIERSPRSASTYSLDILYSGSGILRRSNLNIFQYIGKAGLHGSQVVIEAQGLEALIAATPDEGEENLDSYAGMSAILFDVQLRPVTFFNGYSDLMSKMLSASGDPISVVKGLILLIDHSQELQLQSGLKANIEVQGGLAIDISGAMEFSLWYRESKTRVKNRVTVVITTDITVDSSFVKAGLETSTETEAGLEFISTVQFSQYPFLVCMQMDKDEAPFRQFEKKYERLSTGRGYVSQKRKESVLAGCEFPLHQENSEMCKVVFAPQPDSTSSGWF
B2: Microsomal triglyceride transfer protein large subunit (Homo sapiens), P55157 (parent)
chain: B1 chain
partner: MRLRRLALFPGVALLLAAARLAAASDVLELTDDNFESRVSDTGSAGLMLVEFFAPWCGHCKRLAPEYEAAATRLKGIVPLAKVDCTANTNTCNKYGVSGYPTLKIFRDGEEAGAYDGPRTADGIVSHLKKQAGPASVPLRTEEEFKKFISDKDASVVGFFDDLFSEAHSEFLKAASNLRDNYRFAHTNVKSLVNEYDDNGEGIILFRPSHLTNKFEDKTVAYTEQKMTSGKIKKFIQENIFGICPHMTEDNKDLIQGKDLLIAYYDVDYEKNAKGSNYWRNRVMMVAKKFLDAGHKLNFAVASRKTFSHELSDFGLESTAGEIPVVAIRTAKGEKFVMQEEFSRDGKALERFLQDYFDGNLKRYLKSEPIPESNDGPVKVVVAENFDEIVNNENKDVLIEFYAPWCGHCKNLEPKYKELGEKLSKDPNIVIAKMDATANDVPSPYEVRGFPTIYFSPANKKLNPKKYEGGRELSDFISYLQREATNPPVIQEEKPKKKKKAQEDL

One experiment covers variants of B1. The note with it: with apob_human APOB.
For the variant D169V, the “effect of a mutation on the interaction” value is reported as “with no effect”.
On the same count and under the same terms, the entry for D169E is “with no effect”; for K187R it is “with no effect”; for K187L it is “with no effect”.
Turning to K189R, the “effect of a mutation on the interaction” value is “with no effect”.
Still for that read-out and setting: the entry for K189L is “with no effect”.

In the next experiment the parent is B2. The note with it: with pdia3_chlae PDIA3, Q4VIT4.
As to D169E, the “effect of a mutation on the interaction” value is given as “with no effect”.
Still for that read-out and setting: the entry for D169V is “disrupting interaction strength”.
The same measure, in the same setting: the entry for K189L is “decreasing interaction strength”; for K189R it is “with no effect”.
Consider K187L, for which the “effect of a mutation on the interaction” value is reported as “decreasing interaction strength”.
On the same count and under the same terms, the entry for K187R is “with no effect”.

Variants of B2 are the subject of the next experiment. The following applies: with pdia3_chlae PDIA3, Q4VIT4. This is another data set of the same source.
As for D169V, the “effect of a mutation on the interaction” value is recorded as “with no effect”.
The same measure, in the same setting: the entry for K189L is “with no effect”; for K187L it is “with no effect”.

(Values after IntAct's records for PubMed 26224785.)
